For this data set, the system named is iron-deficiency-anemia-induced animals. It is filed as in vivo, Sprague-Dawley rats. How it is done:
The composition containing bovine myoglobin prepared according to the present invention was administered to iron-deficiency-anemia-induced animals, whereby the effectiveness of the composition containing bovine myoglobin on alleviating anemia was evaluated. Specifically, after 2 weeks acclimation period, thirty 9-week old Sprague-Dawley rats (female) were divided into 3 groups of 10 rats per group, among which one group was fed with normal feed in an amount of 10% of body weight daily for one month (Group 1; control), and the remaining two groups were fed with iron-deficient feed in an amount of 10% of body weight daily for 6 weeks to induce iron-deficiency anemia (Group 2 and Group 3). After 6 weeks of feeding, it was confirmed that iron-deficiency anemia was induced in the individual rat belonging to Group 2 and Group 3. Then, one of the anemia-induced groups was orally administered once a day with saline alone (Group 2), and the other anemia-induced group was orally administered once a day with solution containing bovine myoglobin (0.1 mg Fe/500 μ1 solution, Group 3). The administration continued for 5 weeks. During 5 weeks of administration to Group 2 and Group 3, Group 1 was continuously fed with normal feed, and Group 2 and Group 3 were fed with iron-deficient feed. […] After 5 weeks of administration, blood was collected, and whether anemia was alleviated was evaluated.

[1] abbreviates: female Sprague-Dawley rats, iron-deficient feed, oral once a day 0.1 mg Fe/500 μl solution for 5 weeks.

B1: bovine myoglobin (protein)
chain: MGLSDGEWQLVLNAWGKVEADVAGHGQEVLIRLFTGHPETLEKFDKFKHLKTEAEMKASEDLKKHGNTVLTALGGILKKKGHHEAEVKHLAESHANKHKIPVKYLEFISDAIIHVLHAKHPSDFGADAQAAMSKALELFRNDMAAQYKVLGFHG
modifications: heme cofactor; Bovine myoglobin
For B1, the “Effectiveness at alleviating iron-deficiency anemia” value (conclusion from blood analysis after 5 weeks of administration) is listed as “effective at alleviating iron-deficiency anemia”. Besides, under setting [1], the “Blood test Hematocrit” value turned out to be 35.8 ± 1.9%, the “Blood test Hemoglobin content” value came out at 14.0 ± 0.7 g/dL and the “Weight of rats on 5 weeks after administration” value is reported as 318.9 ± 1.1 g. In addition, the “Occurrence of abnormal symptoms during the administration period” value (rat, in vivo, po) is on record as “no abnormal symptoms”.

The values above are taken from patent publication US20230073947A1, “A METHOD FOR PREPARING BOVINE MYOGLOBIN USING ESCHERICHIA COLI” (iNtRON Biotechnology, Inc., priority 2020, published 2023).
